Experimental data published in patent publication CN115433274A (BEIJING KENUO XINCHENG TECH CO LTD, dated 2022).

B1: 噬菌体展示的纳米抗体2MG6 (VHH)
VHH: QVQLQESGGGLVQAGGSLRLSCAASGSTYPTAYIAWFRQAPGKEREGVAGIYTVGGSTFYTDSVKGRFTISRDNAKNTVYLLMNSLKPEDTAMYFCAAGRTDTAKLRDPRSFGYWGQGTQVTVSS
notes: the phage fusion part is not described; also called 克隆2MG6
B2: 食蟹猴SA重组蛋白 (other)
chain: DTHKSEVAHRFKDLGEEHFKGLVLVAFSQYLQQCPFEEHVKLVNEVTEFAKTCVADESAENCDKSLHTLFGDKLCTVATLRETYGEMADCCAKQEPERNECFLQHKDDNPNLPPLVRPEVDVMCTAFHDNEATFLKKYLYEVARRHPYFYAPELLFFAARYKAAFAECCQAADKAACLLPKLDELRDEGKASSAKQRLKCASLQKFGDRAFKAWAVARLSQKFPKAEFAEVSKLVTDLTKVHTECCHGDLLECADDRADLAKYMCENQDSISSKLKECCDKPLLEKSHCLAEVENDEMPADLPSLAADYVESKDVCKNYAEAKDVFLGMFLYEYARRHPDYSVMLLLRLAKAYEATLEKCCAAADPHECYAKVFDEFQPLVEEPQNLVKQNCELFEQLGEYKFQNALLVRYTKKVPQVSTPTLVEVSRNLGKVGAKCCKLPEAKRMPCAEDYLSVVLNRLCVLHEKTPVSEKVTKCCTESLVNRRPCFSALELDEAYVPKAFNAETFTFHADMCTLSEKEKQVKKQTALVELVKHKPKATKEQLKGVMDNFAAFVEKCCKADDKEACFAEEGPKFVAASQAALA
notes: Bought product; also called cyno SA; Cynomolgus serum albumin

Legend:
牛血清白蛋白(BSA) = molecular target: T1, 牛血清白蛋白(BSA) (bovine, UniProt P02769 25-607); assay: phage ELISA, phage supernatant on BSA-coated plate
T1 construct: also called Bovine serum albumin

食蟹猴SA重组蛋白 = molecular target: B2; assay: phage ELISA, phage supernatant on cyno SA-coated plate
[1] = molecular target: T2, 对照抗体ALB8 (ALB8重组蛋白, VHH-hFc) (human); assay: ELISA, albumin coated at 1 μg/mL, HRP-anti-human Fc
T2 construct: Control anti-HSA nanobody expressed as fusion with human Fc; also called 对照纳米抗体ALB8
T2 sequence (chain, as listed by the source limits assumed): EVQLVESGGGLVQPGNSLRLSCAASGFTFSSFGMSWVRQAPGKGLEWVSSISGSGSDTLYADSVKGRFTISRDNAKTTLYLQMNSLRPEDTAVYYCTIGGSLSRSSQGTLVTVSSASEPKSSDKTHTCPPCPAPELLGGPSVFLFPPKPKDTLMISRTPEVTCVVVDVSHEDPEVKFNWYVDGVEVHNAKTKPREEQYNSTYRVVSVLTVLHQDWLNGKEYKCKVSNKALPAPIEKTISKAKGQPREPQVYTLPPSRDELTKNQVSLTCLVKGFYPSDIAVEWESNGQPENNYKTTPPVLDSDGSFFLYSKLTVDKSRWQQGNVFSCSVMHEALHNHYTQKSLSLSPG

| Binder | binding result (牛血清白蛋白(BSA)) | binding result (食蟹猴SA重组蛋白) | binding result [1] |
| --- | --- | --- | --- |
| B1 | no binding | binds |  |
| B2 |  |  | binds |
